Test results as given in the supplement of paper PMC10065799, “High-throughput profiling of sequence recognition by tyrosine kinases and SH2 domains using bacterial peptide display” (eLife, 2023).

Tests used:
c-Src SH2 = test: SH2 binding enrichment of the phosphorylated peptide, bacterial display (enrichment ratio); higher = better substrate or ligand; peptides without Tyr show the background
Grb2 SH2 = Grb2 SH2 (UniProt P62993); test: as above
SHP2-C SH2 = test: as above
c-Abl (mouse) = test: phosphorylation enrichment, bacterial display (enrichment ratio); higher = better substrate or ligand; peptides without Tyr show the background
Fer (mouse) = test: as above
MERTK = MERTK (UniProt Q12866); test: as above
FGFR3 = FGFR3 (UniProt P22607); test: as above
c-Src = test: as above
EPHB2 = EPHB2 (UniProt P29323); test: as above
Fes = Fes (UniProt P07332); test: as above
EPHB1 = EPHB1 (UniProt P54762); test: as above
Fyn = Fyn (UniProt P06241); test: as above
Hck = Hck (UniProt P08631); test: as above
Jak2 = Jak2 (UniProt O60674); test: as above
AncSZ = test: as above
FGFR1 = FGFR1 (UniProt P11362); test: as above
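For SH2 binding enrichment of the phosphorylated peptide, bacterial display in this document: peptide library displayed on the E. coli surface as eCPX fusions, selected cells deep-sequenced, score is each peptide's frequency after selection divided by its frequency in the input.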
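For phosphorylation enrichment, bacterial display in this document: 11-residue human phosphosite peptides and single-mutation variants displayed on the E. coli surface, counted by deep sequencing, each peptide's frequency after selection divided by its frequency in the unselected input library; frequency after pTyr selection over input frequency; kinase dosed for 20-30% of maximal phosphorylation in three min.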

Sequence of FGFR3 (P22607 whole entry, looked up): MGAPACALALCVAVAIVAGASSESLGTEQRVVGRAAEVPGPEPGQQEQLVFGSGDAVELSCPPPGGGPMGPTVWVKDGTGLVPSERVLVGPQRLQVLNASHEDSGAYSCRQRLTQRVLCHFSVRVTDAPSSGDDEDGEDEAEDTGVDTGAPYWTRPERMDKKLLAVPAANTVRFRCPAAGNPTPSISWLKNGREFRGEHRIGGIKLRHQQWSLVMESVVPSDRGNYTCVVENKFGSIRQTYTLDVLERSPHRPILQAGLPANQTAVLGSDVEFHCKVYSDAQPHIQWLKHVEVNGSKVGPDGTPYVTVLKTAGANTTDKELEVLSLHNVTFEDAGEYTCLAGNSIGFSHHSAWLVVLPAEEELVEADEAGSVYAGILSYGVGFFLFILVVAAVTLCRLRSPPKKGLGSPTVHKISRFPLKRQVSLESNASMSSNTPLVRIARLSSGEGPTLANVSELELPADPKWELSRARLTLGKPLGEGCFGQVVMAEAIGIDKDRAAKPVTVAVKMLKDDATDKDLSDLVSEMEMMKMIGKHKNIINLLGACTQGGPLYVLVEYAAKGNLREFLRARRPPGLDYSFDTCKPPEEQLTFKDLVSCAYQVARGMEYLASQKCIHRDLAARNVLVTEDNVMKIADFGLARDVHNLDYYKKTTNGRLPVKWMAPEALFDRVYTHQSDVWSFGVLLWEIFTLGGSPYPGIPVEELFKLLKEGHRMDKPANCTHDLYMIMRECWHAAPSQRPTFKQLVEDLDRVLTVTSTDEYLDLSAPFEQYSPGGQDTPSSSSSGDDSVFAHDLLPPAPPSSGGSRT
Sequence of Fes (P07332 whole entry, looked up): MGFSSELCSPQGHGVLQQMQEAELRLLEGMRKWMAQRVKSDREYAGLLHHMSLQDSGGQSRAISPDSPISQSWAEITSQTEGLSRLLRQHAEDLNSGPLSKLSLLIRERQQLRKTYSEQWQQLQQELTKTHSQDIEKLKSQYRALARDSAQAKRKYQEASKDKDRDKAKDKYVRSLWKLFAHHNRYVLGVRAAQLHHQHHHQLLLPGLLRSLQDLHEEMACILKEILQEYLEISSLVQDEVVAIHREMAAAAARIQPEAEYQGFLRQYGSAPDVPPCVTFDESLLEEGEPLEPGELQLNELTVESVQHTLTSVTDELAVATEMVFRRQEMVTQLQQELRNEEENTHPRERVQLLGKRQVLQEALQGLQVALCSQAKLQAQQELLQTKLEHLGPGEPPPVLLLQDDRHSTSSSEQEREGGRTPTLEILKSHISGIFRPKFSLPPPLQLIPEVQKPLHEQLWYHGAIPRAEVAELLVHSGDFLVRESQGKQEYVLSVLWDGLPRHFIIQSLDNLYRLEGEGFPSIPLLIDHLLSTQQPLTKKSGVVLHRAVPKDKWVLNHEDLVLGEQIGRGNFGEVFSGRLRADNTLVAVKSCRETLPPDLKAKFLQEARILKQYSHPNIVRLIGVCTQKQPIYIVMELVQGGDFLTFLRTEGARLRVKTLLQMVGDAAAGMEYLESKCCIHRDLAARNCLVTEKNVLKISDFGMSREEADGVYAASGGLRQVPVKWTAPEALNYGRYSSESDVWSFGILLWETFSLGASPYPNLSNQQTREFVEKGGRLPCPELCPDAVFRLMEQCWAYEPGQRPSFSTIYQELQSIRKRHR
Sequence of Grb2 SH2 (P62993 whole entry, looked up): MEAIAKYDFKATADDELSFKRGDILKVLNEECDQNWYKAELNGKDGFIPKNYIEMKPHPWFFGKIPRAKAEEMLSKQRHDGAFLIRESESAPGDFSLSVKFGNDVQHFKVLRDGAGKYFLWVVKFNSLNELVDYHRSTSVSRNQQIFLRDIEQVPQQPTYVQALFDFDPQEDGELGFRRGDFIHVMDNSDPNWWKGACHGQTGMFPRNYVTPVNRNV
Sequence of Hck (P08631 whole entry, looked up): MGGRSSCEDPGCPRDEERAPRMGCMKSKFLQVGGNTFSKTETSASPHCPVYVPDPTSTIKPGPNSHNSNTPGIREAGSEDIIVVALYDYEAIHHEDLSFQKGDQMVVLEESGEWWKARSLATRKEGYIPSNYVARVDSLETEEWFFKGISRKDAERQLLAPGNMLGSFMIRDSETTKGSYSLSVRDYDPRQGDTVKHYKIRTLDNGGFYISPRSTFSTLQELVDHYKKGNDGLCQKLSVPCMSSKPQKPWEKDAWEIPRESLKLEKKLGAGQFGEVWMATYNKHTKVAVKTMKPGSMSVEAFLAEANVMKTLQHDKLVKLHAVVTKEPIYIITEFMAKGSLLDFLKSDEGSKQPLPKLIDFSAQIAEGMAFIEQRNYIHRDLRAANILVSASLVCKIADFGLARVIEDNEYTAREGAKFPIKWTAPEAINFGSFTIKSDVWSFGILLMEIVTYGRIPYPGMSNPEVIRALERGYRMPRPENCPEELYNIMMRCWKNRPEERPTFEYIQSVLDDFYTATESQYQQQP
Sequence of EPHB2 (P29323 whole entry, looked up): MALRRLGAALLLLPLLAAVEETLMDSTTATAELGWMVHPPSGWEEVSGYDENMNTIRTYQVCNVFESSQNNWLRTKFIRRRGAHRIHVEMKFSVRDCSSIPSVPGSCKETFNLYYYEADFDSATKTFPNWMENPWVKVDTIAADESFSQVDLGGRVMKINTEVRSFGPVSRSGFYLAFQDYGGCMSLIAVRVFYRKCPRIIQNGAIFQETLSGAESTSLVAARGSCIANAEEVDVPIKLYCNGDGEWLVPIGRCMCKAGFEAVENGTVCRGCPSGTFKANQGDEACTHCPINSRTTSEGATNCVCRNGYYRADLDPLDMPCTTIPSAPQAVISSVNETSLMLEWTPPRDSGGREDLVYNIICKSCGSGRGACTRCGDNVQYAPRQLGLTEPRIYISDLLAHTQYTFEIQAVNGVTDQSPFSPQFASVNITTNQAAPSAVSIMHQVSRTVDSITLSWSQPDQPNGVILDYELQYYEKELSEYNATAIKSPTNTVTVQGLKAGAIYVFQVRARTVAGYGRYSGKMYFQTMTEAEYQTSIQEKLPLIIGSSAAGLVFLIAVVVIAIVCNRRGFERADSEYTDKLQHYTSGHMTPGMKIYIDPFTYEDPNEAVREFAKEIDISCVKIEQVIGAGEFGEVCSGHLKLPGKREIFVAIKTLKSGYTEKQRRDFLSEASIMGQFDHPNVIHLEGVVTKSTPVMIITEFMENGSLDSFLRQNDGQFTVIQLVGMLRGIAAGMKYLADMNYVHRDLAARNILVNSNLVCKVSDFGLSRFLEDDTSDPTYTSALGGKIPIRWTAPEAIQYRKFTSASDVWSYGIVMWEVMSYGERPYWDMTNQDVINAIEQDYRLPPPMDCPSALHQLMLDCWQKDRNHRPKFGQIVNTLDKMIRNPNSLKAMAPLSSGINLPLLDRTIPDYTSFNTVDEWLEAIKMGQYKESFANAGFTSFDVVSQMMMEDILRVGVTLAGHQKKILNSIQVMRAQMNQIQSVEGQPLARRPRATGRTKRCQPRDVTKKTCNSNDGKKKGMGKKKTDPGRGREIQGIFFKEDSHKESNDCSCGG
Sequence of Jak2 (O60674 whole entry, looked up): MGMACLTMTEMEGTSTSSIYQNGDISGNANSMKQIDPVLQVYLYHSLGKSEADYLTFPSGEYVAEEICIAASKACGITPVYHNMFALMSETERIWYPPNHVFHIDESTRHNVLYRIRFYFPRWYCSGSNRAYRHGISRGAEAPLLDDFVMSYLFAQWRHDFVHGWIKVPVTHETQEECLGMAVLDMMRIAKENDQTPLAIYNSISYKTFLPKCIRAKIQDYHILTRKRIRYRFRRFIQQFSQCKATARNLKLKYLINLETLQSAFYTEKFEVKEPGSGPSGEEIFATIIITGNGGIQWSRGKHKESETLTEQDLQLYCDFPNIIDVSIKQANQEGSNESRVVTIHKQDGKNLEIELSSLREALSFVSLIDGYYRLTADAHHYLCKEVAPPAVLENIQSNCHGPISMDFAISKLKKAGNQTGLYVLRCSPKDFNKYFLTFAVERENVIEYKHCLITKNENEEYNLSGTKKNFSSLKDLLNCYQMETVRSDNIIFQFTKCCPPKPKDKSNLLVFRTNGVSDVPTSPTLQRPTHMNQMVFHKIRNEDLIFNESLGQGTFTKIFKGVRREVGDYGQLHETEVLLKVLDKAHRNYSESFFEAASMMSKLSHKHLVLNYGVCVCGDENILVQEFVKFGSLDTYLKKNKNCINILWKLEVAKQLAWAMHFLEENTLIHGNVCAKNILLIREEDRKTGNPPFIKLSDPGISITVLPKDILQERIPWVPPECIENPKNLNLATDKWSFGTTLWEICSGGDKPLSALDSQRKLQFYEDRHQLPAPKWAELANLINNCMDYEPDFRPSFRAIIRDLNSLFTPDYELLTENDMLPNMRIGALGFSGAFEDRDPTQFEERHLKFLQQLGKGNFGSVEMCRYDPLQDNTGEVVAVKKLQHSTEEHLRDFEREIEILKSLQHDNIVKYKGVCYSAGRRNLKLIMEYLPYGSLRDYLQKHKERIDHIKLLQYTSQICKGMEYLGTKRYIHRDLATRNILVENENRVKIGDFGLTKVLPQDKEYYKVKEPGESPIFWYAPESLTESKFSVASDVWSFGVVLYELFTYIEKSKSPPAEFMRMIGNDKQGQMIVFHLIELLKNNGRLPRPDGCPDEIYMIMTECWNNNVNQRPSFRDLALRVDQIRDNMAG

Sequence | SH2 binding enrichment (c-Src SH2) | SH2 binding enrichment (Grb2 SH2) | SH2 binding enrichment (SHP2-C SH2) | phosphorylation enrichment (c-Abl (mouse)) | phosphorylation enrichment (Fer (mouse)) | phosphorylation enrichment (MERTK) | phosphorylation enrichment (FGFR3) | phosphorylation enrichment (c-Src) | phosphorylation enrichment (EPHB2) | phosphorylation enrichment (Fes) | phosphorylation enrichment (EPHB1) | phosphorylation enrichment (Fyn) | phosphorylation enrichment (Hck) | phosphorylation enrichment (Jak2) | phosphorylation enrichment (AncSZ) | phosphorylation enrichment (FGFR1)
NMSRIYSTAKV [ACE_Y151] | 0.545 | 0.901 | 1.25 | 0.545 | 0.416 | 0.417 | 0.448 | 0.477 | 0.493 | 0.563 | 0.342 | 0.477 | 0.528 | 0.535 | 0.573 | 0.451
NNDLCYWVLEL [IARS1_Y434_P437L] | 0.55 | 0.664 | 0.518 | 1.31 | 1.33 | 2.33 | 7.8 | 5.34 | 1.05 | 1.88 | 1.37 | 5.45 | 4.01 | 3.65 | 2.47 | 7.77
NNRVFYGNSDR [RS1_Y177] | 0.505 | 0.852 | 0.735 | 0.499 | 0.338 | 0.315 | 0.411 | 0.414 | 0.378 | 0.536 | 0.284 | 0.395 | 0.337 | 0.546 | 0.437 | 0.375
NNTFLYQLVFD [EXO1_Y284] | 1.14 | 1.44 | 1.15 | 0.684 | 4.67 | 5.99 | 1.72 | 2.28 | 4.11 | 1.21 | 5.34 | 1.7 | 2.58 | 1.14 | 1.35 | 1.65
NPQKPYFIRLY [WAS_Y83_S82P] | 0.542 | 0.909 | 0.699 | 0.544 | 0.474 | 0.344 | 0.675 | 0.303 | 0.599 | 1.08 | 0.561 | 0.354 | 0.443 | 0.906 | 1.01 | 0.395
NPQKSCFIRLY [WAS_Y83_Y83C] | 0.533 | 0.783 | 0.654 | 0.783 | 0.481 | 0.396 | 0.769 | 0.403 | 0.503 | 1.14 | 0.597 | 0.504 | 0.494 | 1.07 | 1.02 | 0.441
NPQKSYFILLF [WAS_Y83_R86L_YF] | 0.573 | 1.27 | 0.944 | 0.606 | 0.414 | 0.398 | 0.906 | 0.337 | 0.551 | 0.969 | 0.546 | 0.449 | 0.43 | 1.05 | 0.836 | 1.01
NQILPYIEELV [PPP2R1B_Y341_K343E] | 0.725 | 0.979 | 0.953 | 0.875 | 0.931 | 0.504 | 0.781 | 0.507 | 0.644 | 1.28 | 0.673 | 0.53 | 0.568 | 1.45 | 1.37 | 0.533
NTCNRYCCDEI [ITGB3_Y660_R662C] | 0.557 | 0.841 | 0.752 | 1.03 | 0.612 | 0.538 | 0.88 | 0.541 | 0.594 | 1.49 | 0.694 | 0.577 | 0.574 | 1.43 | 1.44 | 0.595
NTGDFCDLFGG [PTPN11_Y63_Y63C_YF] | 0.632 | 1.15 | 0.823 | 0.655 | 0.487 | 0.486 | 0.653 | 0.413 | 0.555 | 1.11 | 0.584 | 0.499 | 0.578 | 0.969 | 1.01 | 0.511
NTQRPHYKGGG [TYROBP_Y111_Y111H] | 1.01 | 1.44 | 1.77 | 0.605 | 0.422 | 0.391 | 0.486 | 0.361 | 0.332 | 0.549 | 0.326 | 0.402 | 0.384 | 0.491 | 0.428 | 0.316
NVLPEYKLQAP [KCNH2_Y388_D383N] | 0.455 | 0.906 | 0.564 | 0.677 | 0.402 | 0.43 | 0.619 | 0.439 | 0.632 | 0.949 | 0.518 | 0.508 | 0.527 | 0.813 | 0.784 | 0.411
NVSILYTASQA [CTNNA1_Y222_P219S] | 0.499 | 0.921 | 0.685 | 0.787 | 0.629 | 0.505 | 0.725 | 0.531 | 0.51 | 1.02 | 0.548 | 0.447 | 0.547 | 0.95 | 0.892 | 0.434
NVVNEYSSELE [FGB_Y172] | 0.556 | 0.932 | 0.463 | 0.717 | 0.515 | 0.422 | 0.769 | 0.482 | 0.627 | 1.25 | 0.611 | 0.515 | 0.628 | 0.99 | 1.19 | 0.565
NVVQEYERVII [NPHS2_Y131_K126N] | 0.557 | 0.978 | 0.831 | 0.633 | 4.44 | 0.442 | 0.668 | 0.485 | 2.22 | 0.942 | 2.13 | 0.47 | 0.589 | 0.772 | 1.17 | 0.59
NYNPNYCFAGK [ALK_Y1096_D1091N] | 0.55 | 0.868 | 0.878 | 0.803 | 0.597 | 1.1 | 0.642 | 0.564 | 1.27 | 0.879 | 3.98 | 0.57 | 0.433 | 0.856 | 1.26 | 0.563
PADSGYPAYLG [ATP6V1A_Y374] | 0.614 | 1.11 | 0.62 | 1.14 | 0.798 | 0.417 | 0.892 | 0.592 | 0.468 | 1.51 | 1.77 | 1.05 | 0.735 | 0.823 | 1.18 | 0.755
